Results from paper doi:10.1101/2021.02.16.431366.

Target: mCherry-TRPV5 (rabbit) (UniProt Q9XSM3)
Assay: single molecule photobleaching counting

Chain of mCherry-TRPV5 (rabbit) (Q9XSM3 whole entry): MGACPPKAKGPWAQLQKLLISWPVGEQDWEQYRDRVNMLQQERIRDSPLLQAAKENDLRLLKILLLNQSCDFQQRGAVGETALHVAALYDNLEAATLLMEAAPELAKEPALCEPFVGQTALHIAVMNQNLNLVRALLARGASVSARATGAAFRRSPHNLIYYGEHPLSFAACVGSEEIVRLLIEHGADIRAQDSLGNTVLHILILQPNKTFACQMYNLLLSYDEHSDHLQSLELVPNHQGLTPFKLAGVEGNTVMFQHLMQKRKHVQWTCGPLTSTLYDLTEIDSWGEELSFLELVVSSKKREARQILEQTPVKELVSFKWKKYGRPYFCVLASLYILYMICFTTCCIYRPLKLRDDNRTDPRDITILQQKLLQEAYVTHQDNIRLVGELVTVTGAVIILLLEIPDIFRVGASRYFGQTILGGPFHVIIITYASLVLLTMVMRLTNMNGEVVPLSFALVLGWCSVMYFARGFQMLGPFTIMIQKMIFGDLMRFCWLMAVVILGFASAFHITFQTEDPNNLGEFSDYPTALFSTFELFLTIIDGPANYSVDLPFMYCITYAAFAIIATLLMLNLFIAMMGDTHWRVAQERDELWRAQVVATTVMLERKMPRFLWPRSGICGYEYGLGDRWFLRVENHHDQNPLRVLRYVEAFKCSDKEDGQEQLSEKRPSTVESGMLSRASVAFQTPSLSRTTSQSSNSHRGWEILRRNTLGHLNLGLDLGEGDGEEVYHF

CaM-eGFP (from UniProt P0DP29 1-149) (natural protein)
stoichiometry N (CaM molecules per TRPV5 tetramer): 2
